Where a chain is given by its changes, count along the chain named.
B1: Anti-E2 7A4mut1 (antibody)
heavy: QVRLQESGPSLVKPSQTLSLTCTISGFSLSGNAITWVRQAPGEVPEWLGGVDNRGSAYYSPALRSRLSITRDTSKSQVSLSLYGVTVEDTAVYYCGRGVWGVDGAGYAHDYWGPGLLVTVSTASTTPPKVYPLTSCCGDTSSSIVTLGCLVSSYMPEPVTVTWNSGALTSGVHTFPAILQSSGLYSLSSVVTVPASTSGAQTFICNVAHPASSTKVDKRVGLSSDYSKCSKPPCVSRPSVFIFPPKPKDSLMITGTPEVTCVVVDVGQGDPEVQFSWFVDNVEVRTARTKPREEQFNSTFRVVSALPIQHDHWTGGKEFKCKVHSKGLPAPIVRTISRAKGQAREPQVYVLAPPQEELSKSTLSVTCLVTGFYPDYIAVEWQRARQPESEDKYGTTTSQLDADGSYFLYSRLRVDKSSWQRGDTYACVVMHEALHNHYTQKSISKPPGK
light: QAVVTQLSSVSGSLGQRVSLTCSGSSSNVGSHSVDWFQKLSESGLRIVIYGTRNRPSGVPDRFSGSKSGNTATLTITSLQTEDEADYYCATSDSTTMTYIFGDGTRLTALGQPKSAPSVTLFPPSTEELSTNKATVVCLINDFYPGSVNVVWKADGSTINQNVKTTQASKQSNSKYAASSYLTLTGSEWKSKSSYTCEVTHEGSTVTKTVKPSECS
B2: Anti-E2 7A4mut3 (antibody)
heavy: B1 heavy
light: B1 light with L20I
B3: Anti-E2 7A4mut2 (antibody, V domains shown)
VH: QVRLQESGPSLVKPSQTLSLTCTISGFSISGNAITWVRQAPGEVPEWLGGVDNRGSAYYSPALRSRLSITRDTSKSQVSLSLYGVTVEDTAVYYCGRGVWGVDGAGYAHDYWGPGLLVTVST
VL: QAVVTQLSSVSGSLGQRVSLTCSGSSSNVGSHSVDWFQKLSESGLRIVIYGTRNRPSGVPDRFSGSKSGNTATLTITSLQTEDEADYYCATSDSTTMTYIFGDGTRLTALG
B4: Anti-E2 7A4mut4 (antibody, V domains shown)
VH: B3 VH with I29L
VL: B3 VL with I49L

biological target: E2-Albumin偶联物; test: indirect ELISA, E2-Albumin coated 3 ug/ml, antibody 125 ng/ml

OD450	Binder
2.06 OD450	B1
2.27 OD450	B2
2.25 OD450	B3
2.26 OD450	B4

biological target: E2-Albumin偶联物; test: indirect ELISA, E2-Albumin coated 3 ug/ml, antibody 31.3 ng/ml

OD450	Binder
0.94 OD450	B1
1.6 OD450	B2
1.69 OD450	B3
1.31 OD450	B4

biological target: E2-Albumin偶联物; test: indirect ELISA, E2-Albumin coated 3 ug/ml, antibody 62.5 ng/ml

OD450	Binder
1.52 OD450	B1
2.16 OD450	B2
1.94 OD450	B3
2.12 OD450	B4

biological target: E2-Albumin偶联物; test: indirect ELISA, E2-Albumin coated 3 ug/ml, antibody 7.81 ng/ml

OD450	Binder
0.22 OD450	B1
0.508 OD450	B2
0.497 OD450	B3
0.461 OD450	B4

biological target: E2-Albumin偶联物; test: indirect ELISA, E2-Albumin coated 3 ug/ml, antibody 15.63 ng/ml

OD450	Binder
0.366 OD450	B1
0.979 OD450	B2
0.953 OD450	B3
0.806 OD450	B4

biological target: E2-Albumin偶联物; test: indirect ELISA, E2-Albumin coated 3 ug/ml, antibody 0.00 ng/ml (blank)

OD450	Binder
0.01 OD450	B1
0.023 OD450	B2
0.065 OD450	B3
0.047 OD450	B4

biological target: E2-Albumin偶联物; test: biosensor (AMC sensor), antibody immobilised at 5 ug/ml, E2-Albumin in gradient

Kd	koff	kon	Binder
9.84 nM	0.00022 s⁻¹	22400 M⁻¹ s⁻¹	B1
0.234 nM	0.00038 s⁻¹	1.63e+06 M⁻¹ s⁻¹	B2
0.188 nM	0.00032 s⁻¹	1.7e+06 M⁻¹ s⁻¹	B3
0.214 nM	0.00044 s⁻¹	2.06e+06 M⁻¹ s⁻¹	B4

Source: patent publication CN116836277A
